In paper PMC8635976, “Ca^2+/CaM binding to CaMKI promotes IMA-3 importin binding and nuclear translocation in sensory neurons to control behavioral adaptation” (eLife, 2021):
Residue numbers refer to the chain shown, from its start. Names and notes keep the numbering of the source.

T1: IMA-3-His6 (IMA-3 importin-α) (C. elegans, UniProt Q19969 1-514, labeled using the RED-tris-NTA His tag protein labeling kit)
T1 construct: IMA-3, importin-α of C. elegans; also called HisTag::IMA-3; source: E. coli BL21 (DE3), purified (Ni-NTA, desalting spin column)
T1 sequence (looked up): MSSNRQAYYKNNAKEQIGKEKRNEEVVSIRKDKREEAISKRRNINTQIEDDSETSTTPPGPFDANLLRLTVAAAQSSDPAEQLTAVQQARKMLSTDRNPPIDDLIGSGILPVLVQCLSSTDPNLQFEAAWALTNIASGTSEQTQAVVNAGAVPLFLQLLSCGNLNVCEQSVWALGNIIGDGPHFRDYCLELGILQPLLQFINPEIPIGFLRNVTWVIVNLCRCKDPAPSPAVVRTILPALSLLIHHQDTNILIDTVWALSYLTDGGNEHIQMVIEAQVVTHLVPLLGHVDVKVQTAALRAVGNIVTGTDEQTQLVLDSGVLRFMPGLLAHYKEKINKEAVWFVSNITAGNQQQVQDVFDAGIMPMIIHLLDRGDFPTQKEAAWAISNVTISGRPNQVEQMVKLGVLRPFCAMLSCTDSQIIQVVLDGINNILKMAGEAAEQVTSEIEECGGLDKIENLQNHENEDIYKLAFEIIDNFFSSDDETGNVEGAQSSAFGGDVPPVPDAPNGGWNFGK

B1: CMK-1(wt), calcium/calmodulin-dependent protein kinase-1 (enzyme, C. elegans, UniProt Q9TXJ0 1-348, looked up)
chain: MPLFKRRDGSGPAPNATIREKYDFRDVLGTGAFSKVFLAESKSDAGQMYAVKCIDKKALKGKEESLENEIKVLRKLRHNNIVQLFDTYDEKQFVYLVMELVTGGELFDRIVAKGSYTEQDASNLIRQVLEAVGFMHDNGVVHRDLKPENLLYYNQDEDSKIMISDFGLSKTEDSGVMATACGTPGYVAPEVLQQKPYGKAVDVWSIGVIAYILLCGYPPFYDESDANLFAQIIKGEYEFDAPYWDQISDSAKDFITHLMCCDPEARFTCQDALSHPWISGNTAYTHDIHGTVAVHLKKSLAKRNWKKAYNAAAAIRQLQMLRLSSNSNRLQKQASQQQPEPPTPAFHA
notes: CMK-1 of C. elegans, ortholog of mammalian CaMKI/IV; cmk-1 cds inserted in pDK2409 (plasmid dg922 [cmk-1(wt)::GST-TEV]); TEV cleavage removes the GST tag to recover untagged CMK-1; also called CaMKI; source: E. coli BL21 (DE3), purified (Glutathione beads, eluted by TEV cleavage)
B2: CMK-1(K71A/R74Q/R77S) (enzyme, C. elegans, UniProt Q9TXJ0 1-348, looked up)
chain: B1 chain with K71A, R74Q, R77S
notes: CMK-1 of C. elegans with three point mutations in the NLS 71-78; plasmid dg929 [cmk-1(K71A/R74Q/R77S)::GST-TEV] made by site-directed mutagenesis from dg922; TEV cleavage removes the GST tag; also called NLS71-78 mutant CMK-1; CMK-1 (K71A/R74Q/R77S) triple mutant; source: E. coli BL21 (DE3), purified (Glutathione beads, eluted by TEV cleavage)

Assays:
Conditions in all cases: both partners purified
[1] = target: T1, IMA-3-His6 (IMA-3 importin-α); assay: MST; Monolith NT.115; RED-tris-NTA labeled IMA-3-His6 at 100 nM, serial dilution of unlabeled CMK-1 in 1x PBS with 0.05% Tween 20; 40% laser power; no Ca2+, no CaM; triplicates
[2] = target: T1, IMA-3-His6 (IMA-3 importin-α); assay: MST; Monolith NT.115; RED-tris-NTA labeled IMA-3-His6 at 100 nM, serial dilution of unlabeled CMK-1 in 1x PBS with 0.05% Tween 20; 40% laser power; with 2 mM CaCl2 and 8 µM CaM; triplicates
[3] = target: T1, IMA-3-His6 (IMA-3 importin-α); assay: MST; Monolith NT.115; RED-tris-NTA labeled IMA-3-His6 at 100 nM, serial dilution of unlabeled CMK-1 in 1x PBS with 0.05% Tween 20; 40% laser power; with 2 mM Ca2+, no CaM

Binder	Kd [1] [nM]	Kd [2] [nM]	Kd [3] [nM]
B1	1540	450	1140
B2	1220	1000	–
